Columns and labels:
[1] = tested on: non-breast cancer cells A875; test: In vitro sensitivity to GCV of promoter-TK gene-introduced cells; type: cell-based, human; settings: GCV seven days, FIG. 8B
Procedure: (§1) In order to examine the cytotoxic effects using the p251 promoter, a suicide gene HSV-TK was ligated downstream of this promoter region (pro251-TK), this plasmid was expressed in cells, and a prodrug GCV was added to the culture of the gene-introduced cells. The measurement of cytotoxic effects by this system was carried out according to the method described in Moolten, Fla. Cancer Gene Ther., 1:279–287, 1994. Firstly, the cytomegalovirus (CMV) promoter of pcDNA3 (manufactured by Invitrogen) was removed using NruI and HindIII sites, into which the p251 promoter was inserted and then using the EcoRV site, the HSV-TK gene excised from pMK (Brinster, R L et al., Cell, 27:223–231, 1981) with BglI and EcoRI was inserted (pro251-TK). As a control, a pcDN3-derived plasmid (pro251) that contains no HSV-TK gene but has integrated the p251 promoter, and a pcDNA3-derived plasmid (CMV-TK) that has the HSV-TK gene and permits the expression of the HSV-TK gene were also used. Each of the plasmids ([…], pro251-TK, CMV-TK) was introduced using lipofectin into the breast cancer cells MCF7 or non-breast cancer cells A875. In order to utilize the expression of the Neo gene contained in pcDNA3 as a drug resistant marker, the transfected cells were cultured with 400 μg/ml of G418 (manufactured by Life Technologies) for ten days to establish the cells that express a respective gene. […]

breast cancer cells MCF7 = test: as above; type: cell-based, human; settings: GCV seven days, FIG. 8A
Procedure: as §1

[2] = tested on: human breast cancer cells OCUBM, MCF7, BT549; test: Luciferase assay of c-erbB-2 promoter activity, breast cancer cells; type: cell-based; settings: FIG. 7A
Procedure: With the transcription initiation site of the c-erbB-2 gene as +1, DNA that corresponded to a genomic region (p533) from −435 to +38 and that had the sequence set forth in SEQ ID NO: 7 was amplified by the PCR method, and then the DNA fragment was integrated into the pGEM-TEasy (manufactured by Promega), and the sequences of the PCR product was determined. Thus, after inserting this PCR product into the SmaI site of pGL2-Basic (manufactured by Promega), it was cleaved with BlnI/SmaI, PstI/SmaI, and BssHII/SmaI using the restriction enzyme sites present on the c-erbB-2 genomic gene to construct plasmids in which the genomic regions of c-erbB-2, p344 (−306/+38) (DNA having the base sequence set forth in SEQ ID NO: 8), p251 (−213/+38) (DNA having the base sequence set forth in SEQ ID NO: 9) and p124 (−86/+38) (DNA having the base sequence set forth in SEQ ID NO: 10) are localized upstream of the Firefly luciferase gene, respectively. Using the plasmid pGL2-Control (manufactured by Promega) having the promoter of SV40 virus and the plasmid pGL2-Basic (manufactured by Promega) containing no promoters, gene introduction was performed in human breast cancer cells OCUBM, MCF7, BT549, normal human fibroblasts HEF, MRC-5, human malignant melanoma A875, and human lung cancer cells QG-56, all of which were cultured in DMEM (Sigma) supplemented with 10% bovine fetal serum. Firstly, after 10 μg each of these plasmids and lipofectin (Life Technologies) were mixed, it was allowed to stand at room temperature for 30 minutes to form a complex of DNA and lipid. […] After 48 hours-culture, the cells were disrupted using the Dual-Luciferase Reporter Assay System (manufactured by Promega), and the Firefly luciferase activity therein was determined using the reagents in the same kit. In order to normalize the efficiency of gene introduction, 1 μg of pRL-TK plasmid (manufactured by Promega) was included in each gene-introduced group, and the Renilla luciferase activity by the TK promoter was determined, based on which the Firefly luciferase activity was corrected.

[3] = tested on: human malignant melanoma A875, human lung cancer cells QG-56; test: Luciferase assay of c-erbB-2 promoter activity, non-breast tumor cells; type: cell-based; settings: human malignant melanoma cells and human lung cancer cells; FIG. 7C
Procedure: (§2) With the transcription initiation site of the c-erbB-2 gene as +1, DNA that corresponded to a genomic region (p533) from −435 to +38 and that had the sequence set forth in SEQ ID NO: 7 was amplified by the PCR method, and then the DNA fragment was integrated into the pGEM-TEasy (manufactured by Promega), and the sequences of the PCR product was determined. Thus, after inserting this PCR product into the SmaI site of pGL2-Basic (manufactured by Promega), it was cleaved with BlnI/SmaI, PstI/SmaI, and BssHII/SmaI using the restriction enzyme sites present on the c-erbB-2 genomic gene to construct plasmids in which the genomic regions of c-erbB-2, p344 (−306/+38) (DNA having the base sequence set forth in SEQ ID NO: 8), p251 (−213/+38) (DNA having the base sequence set forth in SEQ ID NO: 9) and p124 (−86/+38) (DNA having the base sequence set forth in SEQ ID NO: 10) are localized upstream of the Firefly luciferase gene, respectively. Using the plasmid pGL2-Control (manufactured by Promega) having the promoter of SV40 virus and the plasmid pGL2-Basic (manufactured by Promega) containing no promoters, gene introduction was performed in human breast cancer cells OCUBM, MCF7, BT549, normal human fibroblasts HEF, MRC-5, human malignant melanoma A875, and human lung cancer cells QG-56, all of which were cultured in DMEM (Sigma) supplemented with 10% bovine fetal serum. Firstly, after 10 μg each of these plasmids and lipofectin (Life Technologies) were mixed, it was allowed to stand at room temperature for 30 minutes to form a complex of DNA and lipid. Then the complex, after removing the bovine fetal serum therefrom, was contacted with the cells. Eight hours later culture medium supplemented with bovine fetal serum was added. After 48 hours-culture, the cells were disrupted using the Dual-Luciferase Reporter Assay System (manufactured by Promega), and the Firefly luciferase activity therein was determined using the reagents in the same kit. In order to normalize the efficiency of gene introduction, 1 μg of pRL-TK plasmid (manufactured by Promega) was included in each gene-introduced group, and the Renilla luciferase activity by the TK promoter was determined, based on which the Firefly luciferase activity was corrected.

[4] = tested on: normal human fibroblasts HEF, MRC-5; test: Luciferase assay of c-erbB-2 promoter activity, normal fibroblasts; type: cell-based; settings: FIG. 7B
Procedure: as §2

B1: p251: c-erbB-2 genomic region −213/+38, SEQ ID NO: 9 (nucleic acid, listed as Homo sapiens)
DNA: GGCAACCCAGGCGTCCCGGCGCTAGGAGGGACGACCCAGGCCTGCGCGAAGAGAGGGAGAAAGTGAAGCTGGGAGTTGCCGACTCCCAGACTTCGTTGGAATGCAGTTGGAGGGGGCGAGCTGGGAGCGCGCTTGCTCCCAATCACAGGAGAAGGAGGAGGTGGAGGAGGAGGGCTGCTTGAGGAAGTATAAGAATGAAGTTGTGAAGCTGAGATTCCCCTCCATTGGGACCGGAGAAACCAGGGGAGCCC
- sensitivity to GCV of cells expressing HSV-TK under the promoter [1]: very weak compared with of the parent strain
- sensitivity to GCV of cells expressing HSV-TK under the promoter (breast cancer cells MCF7): greater sensitivity to GCV than the parent strain
- promoter activity compared with promoter of SV40 virus [2]: more potent than the promoter of SV40 virus
- transcription activity compared with other c-erbB-2 promoter fragments [2]: higher transcription activity than the p533 promoter
- transcription activity compared with SV40 promoter [3]: lower than the SV40 promoter
- transcription activity compared with p533 promoter [3]: about the same as that of p533 promoter
- promoter activity compared with SV40 promoter [4]: lower than the SV40 promoter
- transcription activity compared with other c-erbB-2 promoter fragments [4]: low compared with the p344 promoter and with the p533 promoter
